Patent US20110092418A1 (FLOREKY INSTITUTE OF EXPERIMENTAL PHYSIOLOGY AND MEDICINE, published 2011)
No end group written: not given here.

T1: LGR7 (RXFP1) receptor (UniProt Q9HBX9 1-757, limits assumed)
T1 sequence (looked up): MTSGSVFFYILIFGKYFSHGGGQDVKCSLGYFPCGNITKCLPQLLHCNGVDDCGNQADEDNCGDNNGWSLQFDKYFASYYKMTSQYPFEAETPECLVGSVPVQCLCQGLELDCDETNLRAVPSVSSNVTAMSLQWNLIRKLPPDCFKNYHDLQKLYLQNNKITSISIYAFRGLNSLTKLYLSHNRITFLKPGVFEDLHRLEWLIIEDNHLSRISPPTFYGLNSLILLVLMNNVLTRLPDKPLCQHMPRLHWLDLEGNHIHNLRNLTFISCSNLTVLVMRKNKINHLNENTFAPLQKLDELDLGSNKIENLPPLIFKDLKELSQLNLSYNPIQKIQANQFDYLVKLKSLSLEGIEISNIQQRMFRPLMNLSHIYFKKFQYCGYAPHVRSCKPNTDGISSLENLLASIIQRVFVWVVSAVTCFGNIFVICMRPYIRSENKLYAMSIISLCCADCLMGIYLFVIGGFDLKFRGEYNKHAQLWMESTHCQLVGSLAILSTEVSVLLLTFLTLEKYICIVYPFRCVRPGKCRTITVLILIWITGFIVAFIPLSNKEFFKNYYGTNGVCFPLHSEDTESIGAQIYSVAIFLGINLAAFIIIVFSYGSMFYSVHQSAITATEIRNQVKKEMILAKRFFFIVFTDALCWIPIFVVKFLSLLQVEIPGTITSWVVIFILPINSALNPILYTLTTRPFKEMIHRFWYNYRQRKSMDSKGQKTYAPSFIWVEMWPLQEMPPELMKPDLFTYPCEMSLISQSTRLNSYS

B1: chimeric relaxin polypeptide H2 B chain/INSL5 A chain (designed binder)
chain 1: DSWMEEVIKLCGRELVRAQIAICGMSTWS
chain 2: DLQTLCCTDGCSMTDLSALC
notes: Synthetic two-chain chimera; The synthesis protocol is detailed only for H2-B/H1-A; also called H2-B/INSL5-A
B2: chimeric relaxin polypeptide H2 B chain/H3 relaxin A chain (designed binder)
chain 1: DSWMEEVIKLCGRELVRAQIAICGMSTWS
chain 2: DVLAGLSSSCCKWGCSKSEISSLC
notes: Synthetic two-chain chimera; The synthesis protocol is detailed only for H2-B/H1-A; also called H2-B/H3-A
B3: human relaxin 2 (H2), wild-type; A + B chain (ligand)
chain 1: DSWMEEVIKLCGRELVRAQIAICGMSTWS
chain 2: QLYSALANKCCHVGCTKRSLARFC
modifications: disulfide (positions not given here); also: A and B chains joined by disulphide bonds, places not given here
notes: Two-chain peptide hormone, A and B chains joined by disulphide bonds; also called H2 relaxin
B4: chimeric relaxin polypeptide H2 B chain/INSL3 A chain (designed binder)
chain 1: DSWMEEVIKLCGRELVRAQIAICGMSTWS
chain 2: AAATNPARYCCLSGCTQQDLLTLCPY
notes: Synthetic two-chain chimera; The synthesis protocol is detailed only for H2-B/H1-A; also called H2-B/INSL3-A
B5: human relaxin 3 (H3), wild-type; A + B chain (ligand)
chain 1: RAAPYGVRLCGREFIRAVIFTCGGSRW
chain 2: DVLAGLSSSCCKWGCSKSEISSLC
modifications: disulfide (positions not given here); also: A and B chains joined by disulphide bonds, places not given here
notes: domain: B chain; Two-chain peptide hormone, A and B chains joined by disulphide bonds; also called H3 relaxin

What was measured:
LGR7 (RXFP1) receptor [1] = molecular target: T1, LGR7 (RXFP1) receptor; experiment: cell-based or functional assay
LGR7 (RXFP1) receptor [2] = molecular target: T1, LGR7 (RXFP1) receptor; experiment: whole cell competition binding against 100 pM [125I]-H2 relaxin, LGR7-transfected HEK293T cells
Procedure: Non-specific binding was determined by addition of excess unlabelled relaxin (500 nM). Data were analysed using GraphPad Prism.

LGR8 (RXFP2) receptor = LGR8 (RXFP2) receptor (UniProt Q8WXD0 1-754, limits assumed); experiment: cell-based or functional assay
LGR8 (RXFP2) receptor, sequence (Q8WXD0 whole entry): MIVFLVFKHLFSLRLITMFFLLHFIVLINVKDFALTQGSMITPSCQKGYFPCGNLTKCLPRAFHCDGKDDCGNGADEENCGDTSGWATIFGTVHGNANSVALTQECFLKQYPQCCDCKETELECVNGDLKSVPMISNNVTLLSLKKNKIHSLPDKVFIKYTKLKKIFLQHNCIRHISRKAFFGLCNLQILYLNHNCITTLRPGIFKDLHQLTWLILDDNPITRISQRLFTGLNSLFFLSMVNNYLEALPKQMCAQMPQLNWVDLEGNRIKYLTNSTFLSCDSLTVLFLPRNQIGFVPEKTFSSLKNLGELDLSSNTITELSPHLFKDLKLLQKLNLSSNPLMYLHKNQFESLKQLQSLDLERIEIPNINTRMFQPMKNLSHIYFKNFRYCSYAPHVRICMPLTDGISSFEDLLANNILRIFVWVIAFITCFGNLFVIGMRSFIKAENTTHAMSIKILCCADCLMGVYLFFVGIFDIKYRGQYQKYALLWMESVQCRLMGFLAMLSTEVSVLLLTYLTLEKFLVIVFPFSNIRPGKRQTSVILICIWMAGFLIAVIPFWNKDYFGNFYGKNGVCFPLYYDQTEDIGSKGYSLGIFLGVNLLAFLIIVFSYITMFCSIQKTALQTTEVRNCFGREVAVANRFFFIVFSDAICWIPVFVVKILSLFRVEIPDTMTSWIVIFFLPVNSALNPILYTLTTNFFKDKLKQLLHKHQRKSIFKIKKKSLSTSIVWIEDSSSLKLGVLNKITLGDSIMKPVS

Binder | LGR7 cAMP pEC50 (LGR7 (RXFP1) receptor [1]) | pKi (LGR7 (RXFP1) receptor [2]) | LGR8 cAMP pEC50 (LGR8 (RXFP2) receptor)
B1 | 6.37 pEC50 | 5.31 pKi | –
B2 | 8.1 pEC50 | 6.8 pKi | 5.34 pEC50
B3 | 10.3 pEC50 | 9.03 pKi | 9.13 pEC50
B4 | < 6 pEC50 | 6.21 pKi | > 6 pEC50
B5 | 9.36 pEC50 | 7.88 pKi | –
